In the assay the target is biotinylated SARS-CoV-2 fusion peptide (Severe acute respiratory syndrome …, biotin on the N-terminus). Kind of assay: BLI. The note with it: both partners purified.

B1: COV44–62 Fab VH R50W (Fab, V domains shown)
VH: QMQLMQSGAEVKKPGASVTVSCKASGDTFSDYRIHWVRQAPGQGLEWMGWMNPKSGDTNFAQKFQGRVTMTRDMSINTAYMTLSGLTFDDTALYYCASLLIVGGFDPLDDFEVWGQGTMVTISS
VL: QSALTQPPSASGSPGQSVTISCSGTSSDVGGYNFVSWYQHHPGKAPKILIYEVTKRPSGVPDRFSGSKSGNTASLTVSGLQAEDEADYYCSSYGGTNNLLFGGGTKLTVL
B1: the binding result is reported as “no binding (tested: 300 nM)”.
